Assays:
[1] = molecular target: GST-EFCAB9^Mut2 (D72N/E160Q) (mouse, UniProt Q9DAM2 1-216, D72N | E160Q); experiment: pull-down
[2] = molecular target: full-length GST-EFCAB9 (mouse) (mouse, UniProt Q9DAM2 1-216); experiment: pull-down
full-length GST-EFCAB9 (mouse), sequence (Q9DAM2 whole entry): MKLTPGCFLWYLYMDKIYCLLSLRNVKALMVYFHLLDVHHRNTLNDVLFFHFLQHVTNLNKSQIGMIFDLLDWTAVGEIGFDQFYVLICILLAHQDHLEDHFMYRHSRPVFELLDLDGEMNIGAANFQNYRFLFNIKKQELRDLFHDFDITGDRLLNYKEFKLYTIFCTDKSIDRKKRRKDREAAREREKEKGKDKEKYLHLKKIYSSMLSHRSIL

GST-EFCAB9^Mut2 (D72N/E160Q), sequence (Q9DAM2 whole entry D72N/E160Q): as the sequence (Q9DAM2 whole entry) above, with D72N, E160Q counted along it

B1: 6xHis-tagged mouse CatSperζ fused to GB1 (natural protein)
chain: MEESVKPVPKHANHRRSSVRSSLYGDVRDLWSTATMSTANVSVSDVCEDFDEEGKSVRNRIRKYSQTISIRDSLNLEPEEIQQQARRELELCHGRSLEHGEDHEESETSLASSTSESLIFSLWKPHRTYWTEQQNRLPLPLMELMETEVLDILKKALITYRSTIGRNHFMTKELQGYIEGIRKRRNKRLYFLDQ
binding result [1]: binds
binding result [2]: binds

— doi:10.1101/459487 (bioRxiv, 2018)
